Consider 2 compounds from US9295724B2, “Stable formulations for parenteral injection of peptide drugs” (Xeris Pharmaceuticals, Inc., priority 2011, dated 2016).

A short description of data set [1]: Freezing point depression of DMSO solutions by DSC. In kind it is physicochemical. The note with it: cooled to −40° C. and heated to 40° C. at 8° C. per minute. Here is the method:
Using PerkinElmer Instruments PYRIS Diamond Differential Scanning Calorimetry (“DSC”), samples were cooled to −40° C. and heated to 40° C. at 8° C. per minute for screening purposes.
In general terms: In DSC, transitions show as peaks or steps in heat flow.

The nature of data set [2]: Effect of pH on insulin solubility in DMSO. Format: physicochemical. The procedure: These solutions were lyophilized to dryness ([…]) using a conservative cycle and reconstituted to various nominal concentrations in DMSO. Solubility was measured by visual inspection for clarity and turbidity via A630.

`C[S+](C)[O-]` [neat DMSO, dimethylsulfoxide]: the “temperature of crystallization (Tc) by DSC” value in data set [1] came out at 18 °C.
On to insulin, for which the “solubility in DMSO” value in data set [2] (lyophilized at pH 2) is given as “at least 100 mg/mL”; in data set [2] (pH memory of 7, lowest concentration tested 10 mg/mL), “poor solubility”. In addition, in data set [2] (pH memory of 7, lower concentration e.g. 10 mg/mL, DMSO), the “time to slowly dissolve to a clear solution” value is “about 24 hours”.
